Numbering of substitutions follows the chain as printed. Blank lines part the entries; values can stand above or below the binder they belong to.
Tests used:
[1] = target: T1, mouse CD137 (equilibrium cell-binding assay) (mouse, UniProt P20334 24-256); assay: equilibrium cell-binding assay, mouse CD137
T1 construct: whole, on cells; The cells are not described; also called mCD137
T1 sequence (looked up): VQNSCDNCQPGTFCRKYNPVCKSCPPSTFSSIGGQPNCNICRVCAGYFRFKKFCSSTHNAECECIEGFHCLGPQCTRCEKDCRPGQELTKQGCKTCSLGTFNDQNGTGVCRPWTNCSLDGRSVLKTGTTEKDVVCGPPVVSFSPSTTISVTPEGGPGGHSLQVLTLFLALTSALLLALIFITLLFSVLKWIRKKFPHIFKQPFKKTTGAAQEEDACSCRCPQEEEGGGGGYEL

[2] = target: T2, human CD137 (recombinant, construct not stated) (human, UniProt Q07011 24-186); assay: Wasatch SPR kinetics, human CD137
T2 construct: also called huCD137; 4-1BB

[3] = target: T3, Fc-, mouse IgG2a-, or His-tagged mouse CD137 (mouse, UniProt P20334 24-187); assay: BLI Octet HTX; tagged CD137 on biosensor, Fab 0-500 nM in solution; global 1:1 fit, apparent KD
T3 construct: Antigens came from ACRO Biosystems, Sino Biological and internal sources; not shown: Fc, mouse IgG2a or His tag
T3 sequence (looked up): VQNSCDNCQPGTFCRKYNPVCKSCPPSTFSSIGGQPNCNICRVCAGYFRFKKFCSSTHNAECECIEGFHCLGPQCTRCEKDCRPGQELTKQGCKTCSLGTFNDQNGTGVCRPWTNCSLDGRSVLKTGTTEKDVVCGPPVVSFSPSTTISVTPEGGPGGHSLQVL
Description: (§1) The anti-CD137 antibodies were further tested for their binding to CD137 from multiple species. Specifically, mAb1, mAb8 and mAb10 were analyzed for binding to human, mouse, cynomolgus and canine CD137. Kinetic experiments were performed on Octet HTX (ForteBio) in kinetics buffer (1×PBS, pH 7.4, 0.1 mg/ml BSA, and 0.002% Tween 20). Fc-, mouse IgG2a-, or His-tagged CD137 (human, mouse, cyno or canine) were loaded for 5 minutes on pre-hydrated biosensors, AHC, AMC or NTA respectively. The sensors were then dipped into Fabs (0, 5.12, 12.8, 32, 80, 200 and 500 nM) for 5 minutes of association, following by 15 minutes of dissociation. Results were analyzed with ForteBio Data Analysis 9.0 and fit globally to a 1:1 binding model to determine the apparent KD. KD for human and mouse CD137 binding were confirmed by using antigens from different sources (ACRO Biosystems, Sino Biological and internal).

[4] = target: T4, Fc-, mouse IgG2a-, or His-tagged cynomolgus CD137 (cynomolgus, UniProt A9YYE7 24-186); assay: as above
T4 construct: also called cyno CD137; not shown: Fc, mouse IgG2a or His tag
T4 sequence: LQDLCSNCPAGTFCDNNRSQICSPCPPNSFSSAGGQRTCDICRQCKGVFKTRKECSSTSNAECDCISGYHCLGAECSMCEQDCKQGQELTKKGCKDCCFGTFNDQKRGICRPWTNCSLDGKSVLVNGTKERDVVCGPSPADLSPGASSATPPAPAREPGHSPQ
Description: as §1

[5] = target: T5, Fc-, mouse IgG2a-, or His-tagged human CD137 (human, UniProt Q07011 24-186); assay: as above
T5 construct: Antigens came from ACRO Biosystems, Sino Biological and internal sources; not shown: Fc, mouse IgG2a or His tag
Description: as §1

[6] = target: T6, purified recombinant his tagged human CD137 (human, UniProt Q07011 24-186); assay: Carterra MX96 SPRi; antibody printed on chip, his tagged human CD137 injected
T6 construct: not shown: his tag
Description: The resulting anti-CD137 antibodies from different selection rounds were plotted on kd/kₐ double log plots. Apparent association and dissociation kinetic rate constants (kₐ and kd values) were determined on an SPRi reader (MX96, Carterra) in a running buffer of PBS-T 0.01%. Anti-human CD137 antibodies were covalently printed on a Carboxymethyldextran hydrogel 50 L chip (Xantec bioanalytics) on a CFM (Carterra). Freshly mixed activating reagents (150 […] 0.1 M sulfo-NHS in H2O) were used to activate the surface of the SPR substrate for 7 minutes. Antibodies at 10 mg/ml in acetic acid buffer pH 4.5 were used for printing for 15 minutes. The printed chip was then quenched on SPRi reader (MX96, Carterra) with 1 M ethanolamine for 15 minutes. For kinetics analysis, purified recombinant his tagged human CD137 (0, 2.05, 5.12, 12.8, 32, 80, 200, 500 nM) was injected sequentially. For each concentration, there was 5 minutes of association followed by 10 minutes of dissociation. Data were processed and analyzed in SPR Inspection Tool and Scrubber softwares. The kinetic data were referenced with the interstitial reference spots and double-referenced to a buffer cycle, and then fit globally to a 1:1 binding model to determine their apparent association and dissociation kinetic rate constants (kₐ and kd values). The ratio kd/kₐ was used to derive the KD value of each antigen/mAb interaction, i.e. KD=kd/kₐ.

[7] = target: T7, mouse CD137 (recombinant, ForteBio Octet) (mouse, UniProt P20334 24-187, limits assumed); assay: ForteBio Octet (BLI) as described in Example 2
T7 construct: also called murine CD137
T7 sequence (looked up): T3 sequence (looked up)
Description: Affinity of the CD137 antibodies was determined by measuring their kinetic constants (kₐ, kd, KD) on ForteBio Octet. ForteBio affinity measurements were performed generally as previously described (Estep et al., MAbs. 2013 5(2):270-8). Briefly, ForteBio affinity measurements were performed by loading antibodies (IgGs) on-line onto AHQ sensors. Sensors were equilibrated off-line in assay buffer for 30 minutes and then monitored on-line for 60 seconds for baseline establishment. For avid binding measurement, sensors with loaded IgGs were exposed to 100 nM antigen (human, cyno, or murine CD137) for 3 minutes, afterwards they were transferred to assay buffer for 3 minutes for off-rate measurement. Monovalent binding measurements were obtained by loading human CD137-Fc fusion on AHQ sensors followed by exposure to 200 nM antibody Fab in solution. Kinetics data were fit using a 1:1 binding model in the data analysis software provided by ForteBio (data not shown).

B1: mAb1 wild type, reference of the CDRH3 alanine scan (antibody, V domains shown)
VH: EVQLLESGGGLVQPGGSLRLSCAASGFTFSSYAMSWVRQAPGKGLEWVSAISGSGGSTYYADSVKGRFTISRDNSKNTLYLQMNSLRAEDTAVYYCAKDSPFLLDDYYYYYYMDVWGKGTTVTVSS
VL: DIQMTQSPSSVSASVGDRVTITCRASQGISSWLAWYQQKPGKAPKLLIYAASSLQSGVPSRFSGSGSGTDFTLTISSLQPEDFATYYCQQGHLFPITFGGGTKVEIK
notes: The derivatives were cloned into an aglyco-IgG1 expression vector (DID-2600); also called WT KD
Kd [1]: 11 nM
Kd [2]: 1 nM

B2: mAb1 Fab (Fab, V domains shown)
VH: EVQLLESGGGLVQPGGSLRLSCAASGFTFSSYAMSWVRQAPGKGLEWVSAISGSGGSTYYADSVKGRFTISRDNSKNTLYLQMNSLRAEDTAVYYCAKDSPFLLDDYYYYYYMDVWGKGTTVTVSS
VL: B1 VL
Kd [3]: 300 to 500 nM
Kd [4]: 30 to 100 nM
Kd [5]: 50 to 70 nM

B3: anti-CD137 mAb8 (antibody, V domains shown)
VH: EVQLLESGGGLVQPGGSLRLSCAASGFTFRNYAMSWVRQAPGKGLEWVSAISGSGDTTYYADSVKGRFTISRDNSKNTLYLQMNSLRAEDTAVYYCAKDSPFLLDDYYYYYYMDVWGKGTTVTVSS
VL: B1 VL
notes: Generated with IgG4 constant regions
Kd [6]: 3.2 nM
Kd [7]: 72 nM

B4: mAb9 (antibody, IgG4, V domains shown)
VH: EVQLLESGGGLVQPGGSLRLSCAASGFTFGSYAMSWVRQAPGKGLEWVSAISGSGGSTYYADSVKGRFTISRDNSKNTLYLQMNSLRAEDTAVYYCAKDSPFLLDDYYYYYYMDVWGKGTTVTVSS
VL: B1 VL
Kd [6]: 41.4 nM
Kd [7]: 6.9 nM

B5: mAb1 alanine-substituted derivative M(100I)A (antibody, IgG1, V domains shown)
VH: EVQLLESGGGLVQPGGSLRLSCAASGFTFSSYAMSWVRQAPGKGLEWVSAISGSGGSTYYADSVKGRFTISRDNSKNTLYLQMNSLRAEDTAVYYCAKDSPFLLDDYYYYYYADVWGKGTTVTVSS
VL: B1 VL
notes: aglyco-IgG1 vector (DID-2600)
Kd [1]: 21 nM
Kd [2]: 1.8 nM

B6: mAb10 Fab (Fab, V domains shown)
VH: B3 VH with R30Y, N31G, S49A, T57S
VL: B1 VL
Kd [3]: 10 to 30 nM
Kd [4]: 1.8 nM
Kd [5]: 0.9 nM

B8: mAb8 Fab (Fab, V domains shown)
VH: B3 VH
VL: B1 VL
Kd [3]: 50 to 90 nM
Kd [4]: 3 to 7 nM
Kd [5]: 3 to 5 nM

B10: mAb1 alanine-substituted derivative L99A (antibody, IgG1, V domains shown)
VH: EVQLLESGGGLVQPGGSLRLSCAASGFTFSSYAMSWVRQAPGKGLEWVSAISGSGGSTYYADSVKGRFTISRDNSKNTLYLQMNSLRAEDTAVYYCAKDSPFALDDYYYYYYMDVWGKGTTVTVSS
VL: B1 VL
notes: aglyco-IgG1 vector (DID-2600)
Kd [1]: 33 nM
Kd [2]: 2.7 nM

B12: mAb1 alanine-substituted derivative Y(100D)A (antibody, IgG1, V domains shown)
VH: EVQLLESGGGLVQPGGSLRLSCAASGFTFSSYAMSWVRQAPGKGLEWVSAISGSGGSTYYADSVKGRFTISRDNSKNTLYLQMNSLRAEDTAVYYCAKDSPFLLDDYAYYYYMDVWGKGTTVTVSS
VL: B1 VL
notes: aglyco-IgG1 vector (DID-2600)
Kd [1]: 170 nM

B13: anti-CD137 mAb10 (antibody, IgG4, V domains shown)
VH: B3 VH with R30Y, N31G, S49A, T57S
VL: B1 VL
notes: as for B3
Kd [6]: 20 nM
Kd [7]: 8.4 nM

B14: mAb1 alanine-substituted derivative D(100B)A (antibody, IgG1, V domains shown)
VH: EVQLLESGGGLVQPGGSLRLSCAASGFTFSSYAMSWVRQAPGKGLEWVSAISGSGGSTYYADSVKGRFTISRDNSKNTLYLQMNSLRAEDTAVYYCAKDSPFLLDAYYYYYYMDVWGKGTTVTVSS
VL: B1 VL
notes: aglyco-IgG1 vector (DID-2600)
Kd [1]: 54 nM
Kd [2]: 1.3 nM

B15: mAb1 alanine-substituted derivative Y(100C)A (antibody, IgG1, V domains shown)
VH: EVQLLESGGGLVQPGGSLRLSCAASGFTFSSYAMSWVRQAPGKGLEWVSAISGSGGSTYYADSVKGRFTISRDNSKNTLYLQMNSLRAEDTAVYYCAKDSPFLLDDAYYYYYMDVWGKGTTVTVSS
VL: B1 VL
notes: aglyco-IgG1 vector (DID-2600)
Kd [1]: 25 nM
Kd [2]: 1 nM

B16: mAb1 alanine-substituted derivative S96A (antibody, IgG1, V domains shown)
VH: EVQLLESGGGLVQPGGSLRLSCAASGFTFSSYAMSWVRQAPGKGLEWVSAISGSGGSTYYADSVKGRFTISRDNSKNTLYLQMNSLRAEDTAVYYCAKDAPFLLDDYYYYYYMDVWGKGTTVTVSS
VL: B1 VL
notes: aglyco-IgG1 vector (DID-2600)
Kd [1]: 40 nM
Kd [2]: 1.8 nM

B17: mAb7 (antibody, IgG4, V domains shown)
VH: B3 VH with R30N, N31Y, S52D, T57N, Y59T
VL: B1 VL
Kd [6]: 6.8 nM
Kd [7]: 1.2 nM

Other lines, results leading:

binding result [1]: no binding
binding result [2]: no binding
B7: mAb1 alanine-substituted derivative D95A (antibody, V domains shown)
VH: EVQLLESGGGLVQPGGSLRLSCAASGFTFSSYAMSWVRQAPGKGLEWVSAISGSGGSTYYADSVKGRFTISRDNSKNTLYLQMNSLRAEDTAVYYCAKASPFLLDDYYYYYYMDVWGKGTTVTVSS
VL: B1 VL
notes: aglyco-IgG1 vector (DID-2600)

binding result [1]: no binding
binding result [2]: no binding
B9: mAb1 alanine-substituted derivative Y(100H)A (antibody, IgG1, V domains shown)
VH: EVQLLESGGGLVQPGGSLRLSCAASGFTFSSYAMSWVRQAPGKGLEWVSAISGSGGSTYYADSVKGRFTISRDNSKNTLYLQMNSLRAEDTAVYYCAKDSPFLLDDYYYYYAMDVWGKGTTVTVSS
VL: B1 VL
notes: aglyco-IgG1 vector (DID-2600)

binding result [1]: no binding
binding result [2]: no binding
B11: mAb1 alanine-substituted derivative L100A (antibody, IgG1, V domains shown)
VH: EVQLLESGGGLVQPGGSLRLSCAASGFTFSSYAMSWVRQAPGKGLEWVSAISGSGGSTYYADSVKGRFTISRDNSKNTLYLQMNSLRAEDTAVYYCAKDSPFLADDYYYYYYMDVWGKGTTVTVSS
VL: B1 VL
notes: aglyco-IgG1 vector (DID-2600); Leucine at position 100 is changed to alanine

binding result [1]: no binding
binding result [2]: no binding
B18: mAb1 alanine-substituted derivative Y(100E)A (antibody, IgG1, V domains shown)
VH: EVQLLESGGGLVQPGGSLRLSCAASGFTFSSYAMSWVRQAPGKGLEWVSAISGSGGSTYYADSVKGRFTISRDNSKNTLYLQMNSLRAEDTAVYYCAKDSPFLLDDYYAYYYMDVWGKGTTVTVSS
VL: B1 VL
notes: aglyco-IgG1 vector (DID-2600)

binding result [1]: no binding
binding result [2]: no binding
B19: mAb1 alanine-substituted derivative Y(100G)A (antibody, IgG1, V domains shown)
VH: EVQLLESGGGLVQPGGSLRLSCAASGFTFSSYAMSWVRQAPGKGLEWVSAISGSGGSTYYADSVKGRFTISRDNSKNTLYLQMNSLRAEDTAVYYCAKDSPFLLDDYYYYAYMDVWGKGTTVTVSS
VL: B1 VL
notes: aglyco-IgG1 vector (DID-2600)

Kd [6]: 12.1 nM
Kd [7]: 25.8 nM
B20: mAb12 (antibody, IgG4, V domains shown)
VH: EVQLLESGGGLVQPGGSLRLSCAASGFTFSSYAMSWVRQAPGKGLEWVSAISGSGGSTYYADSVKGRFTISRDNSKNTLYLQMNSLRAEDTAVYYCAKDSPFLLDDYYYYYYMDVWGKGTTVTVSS
VL: DIQLTQSPSSLSASVGDRVTITCRASQDIGDWLAWYQQKPGKAPKLLIYKASGLQSGVPSRFSGSGSGTEFTLTISNLQPEDFATYYCQQGNQFPLTFGQGTRLE

Kd [6]: 4.1 nM
Kd [7]: 4.8 nM
B21: mAb11 (antibody, IgG4, V domains shown)
VH: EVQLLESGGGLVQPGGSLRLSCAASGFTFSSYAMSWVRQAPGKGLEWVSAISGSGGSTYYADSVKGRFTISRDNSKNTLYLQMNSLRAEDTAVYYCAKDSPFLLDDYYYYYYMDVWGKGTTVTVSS
VL: DIQMTQSPSTLSASVGDRVTITCRASQNIHNWLAWYQQKPGKAPKLLIYKASGLESGVPSRFSGSGSGTEFTLTISSLQPDDFATYYCQQGDRFPLTFGGGTKVEIK

— US20240181050A1 (COMPASS THERAPEUTICS, published 2024)
